Experimental data reported in patent US20190292517A1.

Target: CD3 on human peripheral blood T cells (human) (UniProt P07766)
Assay: cell-based or functional assay

Row | Substance | fold expansion of human T cells at day 13, 0.5 ug anti-CD3 on APC-MS (1:1 with anti-CD28) [fold] | fold expansion of human T cells at day 13, 1 ug anti-CD3 on APC-MS (1:1 with anti-CD28) [fold] | fold expansion of human T cells at day 13, 5 ug anti-CD3 on APC-MS (1:1 with anti-CD28) [fold]
1 | muromonab (OKT3), anti-CD3 antibody | 600 to 700 | 300 to 400 | 600 to 800
2 | UCHT1, monoclonal antibody recognizing a 20 kDa subunit of the TCR complex within CD3e | – | – | 600 to 800
3 | HIT3a, antibody recognizing 17-19 kD epsilon-chain of CD3 within the CD3 antigen/T cell antigen receptor (TCR) complex | – | 300 to 400 | 600 to 800
